Legend:
[1] = target: SARS-CoV-2 BA.2.86 Hexapro S ectodomain (SARS-CoV-2) (UniProt P0DTC2); test: cryo-EM structure
[2] = target: SARS-CoV-2 XBB.1.5 + L455S RBD (SARS-CoV-2) (UniProt P0DTC2); test: SPR
[3] = target: SARS-CoV-2 XBB.1.5 + L455F RBD (SARS-CoV-2) (UniProt P0DTC2); test: SPR

Substance | stoichiometry N [1] | Kd [2] [nM] | koff [2] [s⁻¹] | kon [2] [M⁻¹ s⁻¹] | Kd [3] [nM] | koff [3] [s⁻¹] | kon [3] [M⁻¹ s⁻¹]
SARS-CoV-2 BA.2.86 Hexapro S ectodomain (from UniProt P0DTC2 14-1204) (domain or fragment) | 3 |  |  |  |  |  | 
VIR-7229 Fab fragment |  | 0.199 | 0.000106 | 543000 | 0.193 | 0.000113 | 604000
